Laboratory results: publication PMC8617483, “Structure of the ATP synthase from Mycobacterium smegmatis provides targets for treating tuberculosis” (Proceedings of the National Academy of Sciences of the …, 2021)

B3: ATP synthase bδ-subunit from Mycobacterium smegmatis (natural protein, UniProt A0R203 1-445, looked up)
chain: MSIFIGQLIGFAVIAFIIVKWVVPPVRTLMRNQQEAVRAALAESAEAAKKLADADAMHAKALADAKAESEKVTEEAKQDSERIAAQLSEQAGSEAERIKAQGAQQIQLMRQQLIRQLRTGLGAEAVNKAAEIVRAHVADPQAQSATVDRFLSELEQMAPSSVVIDTAATSRLRAASRQSLAALVEKFDSVAGGLDADGLTNLADELASVAKLLLSETALNKHLAEPTDDSAPKVRLLERLLSDKVSATTLDLLRTAVSNRWSTESNLIDAVEHTARLALLKRAEIAGEVDEVEEQLFRFGRVLDAEPRLSALLSDYTTPAEGRVALLDKALTGRPGVNQTAAALLSQTVGLLRGERADEAVIDLAELAVSRRGEVVAHVSAAAELSDAQRTRLTEVLSRIYGRPVSVQLHVDPELLGGLSITVGDEVIDGSIASRLAAAQTGLPD
notes: ATP synthase subunit bδ (natural fusion of a b-domain, a linking domain and a δ-domain), M. smegmatis mc2 155, encoded in the entire atp operon; modelled in substate S1a (PDB 7NJK): 1-162, 169-444; One copy in the enzyme; part of the peripheral stalk; also called fused bδ-subunit
B4: ATP synthase γ-subunit from Mycobacterium smegmatis (natural protein, UniProt A0R201 1-307, looked up)
chain: MAATLRELRGRIRSAGSIKKITKAQELIATSRIAKAQARVEAARPYAAEITNMLTELAGASALDHPLLVERKQPKRAGVLVVSSDRGLCGAYNANVLRRAEELFSLLRDEGKDPVLYVVGRKALGYFSFRQRTVVESWTGFSERPTYENAREIADTLVNAFMAGADDEGDDAGADGILGVDELHIVFTEFRSMLSQTAVARRAAPMEVEYVGEVETGPRTLYSFEPDPETLFDALLPRYIATRVYAALLEAAASESASRRRAMKSATDNADDLIKALTLAANRERQAQITQEISEIVGGANALAGSK
notes: ATP synthase subunit γ, M. smegmatis mc2 155, encoded in the entire atp operon; modelled in substate S1a (PDB 7NJK): 3-213, 220-304; One copy in the enzyme
B5: ATP synthase ε-subunit from Mycobacterium smegmatis (natural protein, UniProt A0R1Z9 1-121, looked up)
chain: MADLNVEIVAVERELWSGPATFVFTRTTAGEIGILPRHIPLVAQLVDDAMVRVEREGEDDLRIAVDGGFLSVTEETVRILVENAQFESEIDADAAKEDAASDDERTAAWGRARLRALGQID
notes: ATP synthase subunit ε, M. smegmatis mc2 155, encoded in the entire atp operon; modelled in substate S1a (PDB 7NJK): 3-120; One copy in the enzyme
B7: ATP synthase a-subunit from Mycobacterium smegmatis (natural protein, UniProt A0R206 1-252, looked up)
chain: MLAAEEGGAAIHVGHHTLVFELFGMTFNGDTILATAVTAVIVIALAFYLRAKVTSTGVPSGVQLFWEALTIQMRQQIEGSIGMKIAPFVLPLSVTIFVFILISNWLAVLPLQYGGADGAAAELYKAPASDINFVLALALFVFVCYHAAGIWRRGIVGHPIKVVKGHVAFLAPINIVEELAKPISLALRLFGNIFAGGILVALIAMFPWYIQWFPNAVWKTFDLFVGLIQAFIFSLLTILYFSQSMELDHEDH
notes: ATP synthase subunit a, M. smegmatis mc2 155, encoded in the entire atp operon; modelled in substate S1a (PDB 7NJK): 10-247; One copy in the enzyme

Assays:
Assay in all cases: cryo-EM structure; single particles of the ATP synthase purified in detergent and inhibited with bedaquiline (25 μM); 63 maps and 27 models, resolutions 2.11 to 4.15 Å; states S1 to S3 and substates
[1] = target: T1, ATP synthase α-subunit from Mycobacterium smegmatis (Mycobacterium smegmatis, UniProt A0R202 1-548); details: both partners purified
T1 construct: ATP synthase subunit α, M. smegmatis mc2 155, encoded in the entire atp operon; modelled in substate S1a (PDB 7NJK): αE 5-21, 29-406, 411-521; αTP 5-21, 29-406, 411-521; αDP 6-406, 413-521, 527-545; Three copies in the enzyme (α3β3); also called αE; αTP

[2] = target: B3; details: both partners purified
[3] = target: B4; details: both partners purified
[4] = target: B7; details: both partners purified
[5] = target: the molecule itself
[6] = target: B5; details: both partners purified

T1 sequence (A0R202 whole entry): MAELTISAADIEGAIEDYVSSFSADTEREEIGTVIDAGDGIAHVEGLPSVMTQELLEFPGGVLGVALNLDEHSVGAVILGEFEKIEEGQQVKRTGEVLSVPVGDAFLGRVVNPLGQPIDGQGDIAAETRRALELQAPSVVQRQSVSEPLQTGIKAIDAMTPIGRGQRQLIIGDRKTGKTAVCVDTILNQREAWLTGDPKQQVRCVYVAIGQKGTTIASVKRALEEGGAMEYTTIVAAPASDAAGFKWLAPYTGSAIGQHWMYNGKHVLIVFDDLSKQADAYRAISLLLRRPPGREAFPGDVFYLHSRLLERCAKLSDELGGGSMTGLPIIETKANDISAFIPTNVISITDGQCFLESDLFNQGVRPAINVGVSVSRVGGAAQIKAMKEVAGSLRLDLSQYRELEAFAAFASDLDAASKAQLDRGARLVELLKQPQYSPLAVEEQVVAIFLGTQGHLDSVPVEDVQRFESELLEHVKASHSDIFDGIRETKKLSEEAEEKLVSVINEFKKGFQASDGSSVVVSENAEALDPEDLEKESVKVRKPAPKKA

B1: ATP synthase β-subunit from Mycobacterium smegmatis (natural protein, UniProt A0R200 1-475, looked up)
chain: MTATAEKTAGRVVRITGPVVDVEFPRGSVPELFNALHAEITFGALAKTLTLEVAQHLGDSLVRCISMQPTDGLVRGVEVTDTGASISVPVGDGVKGHVFNALGDCLDDPGYGKDFEHWSIHRKPPAFSDLEPRTEMLETGLKVVDLLTPYVRGGKIALFGGAGVGKTVLIQEMINRIARNFGGTSVFAGVGERTREGNDLWVELADANVLKDTALVFGQMDEPPGTRMRVALSALTMAEFFRDEQGQDVLLFIDNIFRFTQAGSEVSTLLGRMPSAVGYQPTLADEMGELQERITSTRGRSITSMQAVYVPADDYTDPAPATTFAHLDATTELSRAVFSKGIFPAVDPLASSSTILDPAIVGDEHYRVAQEVIRILQRYKDLQDIIAILGIDELSEEDKQLVNRARRIERFLSQNMMAAEQFTGQPGSTVPLKETIEAFDKLTKGEFDHLPEQAFFLIGGLDDLAKKAESLGAKL
notes: ATP synthase subunit β, M. smegmatis mc2 155, encoded in the entire atp operon; modelled in substate S1a (PDB 7NJK): βE 8-471; βTP 7-475; βDP 8-475; Three copies in the enzyme (α3β3); also called βE; βTP
- binding result [1]: binds

B2: ATP synthase b′-subunit from Mycobacterium smegmatis with a C-terminal His10-tag (natural protein, UniProt A0R204 1-170, looked up)
chain: MGEFSATILAASQAAEEGGGGSNFLIPNGTFFAVLIIFLIVLGVISKWVVPPISKVLAEREAMLAKTAADNRKSAEQVAAAQADYEKEMAEARAQASALRDEARAAGRSVVDEKRAQASGEVAQTLTQADQQLSAQGDQVRSGLESSVDGLSAKLASRILGVDVNSGGTQ
notes: ATP synthase subunit b′, M. smegmatis mc2 155, encoded in the entire atp operon; modelled in substate S1a (PDB 7NJK): 22-166; residues 1 to 21 had no density but are present in the assembled enzyme; One copy in the enzyme; part of the peripheral stalk; No removal of the tag is told; also called b-subunit (in some sentences)
- binding result [2]: binds
- binding result [3]: binds
- binding result [4]: binds
- binding result [1]: binds

Binder: B3
- binding result [1]: binds

Binder: B4
- binding result [1]: binds

Binder: B5
- binding result [3]: binds

B6: ATP synthase c-subunit from Mycobacterium smegmatis (natural protein, UniProt A0R205 1-86, looked up)
chain: MDLDPNAIITAGALIGGGLIMGGGAIGAGIGDGIAGNALISGIARQPEAQGRLFTPFFITVGLVEAAYFINLAFMALFVFATPGLQ
notes: ATP synthase subunit c, M. smegmatis mc2 155, encoded in the entire atp operon; modelled in substate S1a (PDB 7NJK): 3-86 in all nine copies; Nine copies form the c9-ring of the rotor; in the rows with a and ε the subunit stands in that ring; also called c9-ring; c-ring
- binding result [4]: binds
- stoichiometry N [5]: 9
- binding result [6]: binds

Binder: B7
- binding result [2]: binds
